Where no end group is shown, it is not given here. The star is where a group is joined. Biotin = O=C1N[C@H]2[C@H](CS[C@H]2CCCCC(=O)*)N1

In the experiment the target is HLA-DR3 (HLA-DRβ1-Arg74 positive) on the surface of VAVY cells (human (endogenous in VAVY)). Briefly: flow cytometry on cells. A general note: Flow cytometry measures light scatter and fluorescence of single cells or particles in a stream.

Molecule Biotin-GIFNTGLKMFPDLTKVYST [TSHR132–150 peptide, biotinylated] came in with a percent binding to DRβ-Arg74-positive cells at 10 μM peptide of 5.1%, a percent binding to DRβ-Arg74-positive cells at 20 μM peptide of 21.7% and a percent binding to DRβ-Arg74-positive cells at 50 μM peptide of 51%.

For the molecule Biotin-FNGTKLDAVYLNKNKYLTVI [TSHR197–216 peptide, biotinylated], the percent binding to DRβ-Arg74-positive cells at 10 μM peptide stood at 14.7%, the percent binding to DRβ-Arg74-positive cells at 20 μM peptide worked out at 19.4% and the percent binding to DRβ-Arg74-positive cells at 50 μM peptide came to 72.9%.

Values taken from paper PMC7819272.
